Assay results as given in article PMC5131357, “Biochemical and Structural Analysis of a Novel Esterase from Caulobacter crescentus related to Penicillin-Binding Protein (PBP)” (Scientific Reports, 2016).

Assays:
Assay in all cases: purified protein
[1] = tested on: CC(=O)Oc1ccc([N+](=O)[O-])cc1; details: 20 mM Tris-HCl pH 8.0, RT, 40 nM enzyme
[2] = tested on: O=C(Cc1cccs1)N[C@@H]1C(=O)N2C(C(=O)O)=C(/C=C/c3ccc([N+](=O)[O-])cc3[N+](=O)[O-])CS[C@H]12; details: 20 mM Tris-HCl pH 8.0, RT, 15 μM enzyme
[3] = tested on: CCCCCCCC(=O)Oc1ccc([N+](=O)[O-])cc1; details: 20 mM Tris-HCl pH 8.0, RT, 40 nM enzyme

CcEstA (Caulobacter vibrioides NA1000) gave a Km [1] of 51.9 ± 2.44 µM, a kcat [1] of 15.2 ± 2.19 s⁻¹ and a Km [2] of 1348 µM. It also gave a kcat [2] of 0.00807 s⁻¹, a Km [3] of 43.4 ± 3.15 µM and a kcat [3] of 4.03 ± 0.29 s⁻¹.
